This test deals with G250 antigen (MN antigen), complete protein, aa 1-459 (UniProt Q16790 38-459). Nature of the test: immunohistochemistry of G250-negative cells transiently transfected with the complete cDNA.

One molecule from patent publication US20090274620A1 (WILEX, published 2009) can be followed below.

B1: monoclonal antibody G250 (murine, from hybridoma DSM ACC 2526) (antibody, IgG1, V domains shown)
VH: DVKLVESGGGLVKLGGSLKLSCAASGFTFSNYYMSWVRQTPEKRLELVAAINSDGGITYYLDTVKGRFTISRDNAKNTLYLQMSSLKSEDTALFYCARHRSGYFSMDYWGQGTSVTVSS
VL: DIVMTQSQRFMSTTVGDRVSITCKASQNVVSAVAWYQQKPGQSPKLLIYSASNRYTGVPDRFTGSGSGTDFTLTISNMQSEDLADFFCQQYSNYPWTFGGGTKLEIK
notes: also called MAbG250; MabG250
For the molecule B1, the binding result is given as “binds”.
